Test results from patent US20170066831A1 (Janssen / Centocor, published 2017).
Numbering of substitutions follows the chain as printed.

T1: human ST2L, full length, on cells (human, UniProt Q01638 19-556)
T1 sequence: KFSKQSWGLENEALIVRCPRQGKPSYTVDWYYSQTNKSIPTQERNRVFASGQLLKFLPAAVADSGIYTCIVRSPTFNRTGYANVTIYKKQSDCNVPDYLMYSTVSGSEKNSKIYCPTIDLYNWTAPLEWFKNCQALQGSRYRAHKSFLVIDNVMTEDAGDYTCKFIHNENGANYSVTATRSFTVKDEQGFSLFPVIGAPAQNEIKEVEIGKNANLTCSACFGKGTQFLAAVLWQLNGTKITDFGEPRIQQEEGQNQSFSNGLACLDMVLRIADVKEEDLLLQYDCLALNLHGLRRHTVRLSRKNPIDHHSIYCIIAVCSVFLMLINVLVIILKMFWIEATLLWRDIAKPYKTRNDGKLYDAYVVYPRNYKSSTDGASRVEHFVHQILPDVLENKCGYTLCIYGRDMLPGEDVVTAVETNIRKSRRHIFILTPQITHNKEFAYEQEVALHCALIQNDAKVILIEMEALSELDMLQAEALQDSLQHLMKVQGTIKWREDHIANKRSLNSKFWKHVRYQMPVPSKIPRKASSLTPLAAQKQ

T2: human ST2L extracellular domain with C-terminal His6 tag (human, UniProt Q01638 19-328)
T2 construct: also called huST2L-ECD; ST2L-ECD
T2 sequence: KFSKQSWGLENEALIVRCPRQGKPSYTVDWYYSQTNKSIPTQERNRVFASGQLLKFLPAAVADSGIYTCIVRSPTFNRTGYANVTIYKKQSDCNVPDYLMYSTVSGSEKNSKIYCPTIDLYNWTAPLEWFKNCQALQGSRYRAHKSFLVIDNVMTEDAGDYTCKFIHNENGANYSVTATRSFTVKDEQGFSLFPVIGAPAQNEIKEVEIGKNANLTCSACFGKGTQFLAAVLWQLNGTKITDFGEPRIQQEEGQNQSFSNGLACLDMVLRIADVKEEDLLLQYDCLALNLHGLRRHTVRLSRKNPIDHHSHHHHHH

T3: cynomolgus (Macaca fascicularis) ST2L extracellular domain with C-terminal His6 tag (Macaca fascicularis (cynomolgus), UniProt Q01638 19-321 (human entry))
T3 construct: also called cyno ST2L-ECD; cynoST2L-ECD
T3 chain: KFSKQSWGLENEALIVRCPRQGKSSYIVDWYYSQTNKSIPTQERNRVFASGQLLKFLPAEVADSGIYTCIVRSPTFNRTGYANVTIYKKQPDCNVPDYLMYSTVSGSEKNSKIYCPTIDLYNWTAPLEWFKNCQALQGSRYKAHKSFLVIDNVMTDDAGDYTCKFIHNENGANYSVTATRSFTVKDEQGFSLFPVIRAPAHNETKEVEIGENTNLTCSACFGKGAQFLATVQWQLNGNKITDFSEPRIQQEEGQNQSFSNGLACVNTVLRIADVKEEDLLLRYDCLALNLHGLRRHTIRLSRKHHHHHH

B1: STLM103 (antibody, V domains shown)
VH: EVQLLESGGGLVQPGGSLRLSCAASGFTFSFYDMFWVRQAPGKGLEWVSSIRGEGGRTDYADSVKGRFTISRDNSKNTLYLQMNSLRAEDTAVYYCARDPWSTEGSFFVLDYWGQGTLVTVSS
VL: EIVLTQSPATLSLSPGERATLSCRASQSVDDDLAWYQQKPGQAPRLLIYDASNRATGIPARFSGSGSGTDFTLTISSLEPEDFAVYYCQQYIGAPITFGQGTKVEIK
notes: frameworks VH3-23 / Vk-L6
B2: STLM211 (antibody, V domains shown)
VH: B1 VH with F31G, D33A, F35I, S50Y, R52E, R57E, D59Y
VL: EIVLTQSPATLSLSPGERATLSCRASQSVDDDLAWYQQKPGQAPRLLIYDASNRATGIPARFSGSGSGTDFTLTISSLEPEDFAVYYCQQYNDAITFGQGTKVEIK
notes: frameworks VH3-23 / Vk-L6
B3: STLM215 (antibody, V domains shown)
VH: B1 VH with F31S, S50A, R52A, D59Y
VL: B1 VL
notes: frameworks VH3-23 / Vk-L6
B4: STLM216 (antibody, V domains shown)
VH: B1 VH with F31S, S50D, R52K, R57A, D59N
VL: B1 VL
notes: frameworks VH3-23 / Vk-L6
B5: STLM222 (antibody, V domains shown)
VH: B1 VH with F31I, D33S, S50D, R52G, R57G, D59S
VL: B1 VL
notes: frameworks VH3-23 / Vk-L6
B6: STLM219 (antibody, V domains shown)
VH: B1 VH with F31G, S50D, R52G, R57S, D59N
VL: B1 VL
notes: frameworks VH3-23 / Vk-L6
B7: STLM108 (antibody, V domains shown)
VH: B1 VH with F31I, F35I, S50T, R52K, R57G, D59Y
VL: B1 VL
notes: frameworks VH3-23 / Vk-L6
B8: STLM209 (antibody, V domains shown)
VH: B1 VH with F31I, F35I, S50T, R57G, D59S
VL: B1 VL with G93T, I96L
notes: frameworks VH3-23 / Vk-L6
B9: STLM207 (antibody, V domains shown)
VH: B1 VH with F31S, F35I, S50T, R57T, D59A
VL: B1 VL with G93T, I96L
notes: frameworks VH3-23 / Vk-L6
B10: STLM221 (antibody, V domains shown)
VH: B1 VH with F31I, S50Y, R57D, D59N
VL: B1 VL
notes: frameworks VH3-23 / Vk-L6
B11: STLM218 (antibody, V domains shown)
VH: B1 VH with F31V, Y32D, D33S, R52E, E54N, R57A, D59Y
VL: B1 VL
notes: frameworks VH3-23 / Vk-L6
B12: STLM124 (antibody, V domains shown)
VH: B1 VH with F31I, F35I, S50T, R52K, R57G, D59Y
VL: B1 VL with G93T, I96L
notes: frameworks VH3-23 / Vk-L6
B13: STLM214 (antibody, V domains shown)
VH: B1 VH with F31S, S50D, R52K, D59A
VL: B1 VL with G93D, I96L
notes: frameworks VH3-23 / Vk-L6
B14: STLM213 (antibody, V domains shown)
VH: B1 VH with F35I, S50T, R57D, D59N
VL: B1 VL with G93D, I96L
notes: frameworks VH3-23 / Vk-L6
B15: STLM123 (antibody, V domains shown)
VH: B1 VH with F31D, D33A, S50A, R52E, R57E, D59N
VL: B1 VL with G93T, I96L
notes: frameworks VH3-23 / Vk-L6
B16: STLM107 (antibody, V domains shown)
VH: B1 VH with F31D, D33A, S50A, R52E, R57E, D59N
VL: B1 VL
notes: frameworks VH3-23 / Vk-L6
B17: STLM217 (antibody, V domains shown)
VH: B1 VH with F31V, S50D, R52K, R57E, D59S
VL: B1 VL
notes: frameworks VH3-23 / Vk-L6

Tests used:
[1] = biological target: T1, human ST2L, full length, on cells; test: cell-based or functional assay
[2] = biological target: T2, human ST2L extracellular domain with …; test: SPR, mAb captured, ST2L-ECD in solution
[3] = biological target: T3, cynomolgus (Macaca fascicularis) ST2L …; test: SPR, mAb captured, ST2L-ECD in solution
[4] = biological target: T2, human ST2L extracellular domain with …; test: RLB ELISA: biotinylated IL-33 on coated huST2L-ECD, antibody titrated
Procedure: 96-well plate was coated with 50 μl of 4 μg/ml human ST2L-ECD (amino acids 19-328 of SEQ ID NO: 1) or 2 μg/ml cyno ST2L-ECD (amino acids 19-321 of SEQ ID NO: 2) having C-terminal His₆ tag in bicarbonate buffer at 4° C. for 16 hrs. All subsequent steps were performed at room temperature. Plate was blocked with 200 μl blocking buffer, and was washed 3 times with 300 μl of wash buffer containing PBS+0.05% Tween. 30 μl of various dilutions of anti-ST2L mAbs were added to the wells and incubated for 1 hour. For human receptor-ligand binding assay 20 μl of biotinylated human IL-33 (residues 112-270 of SEQ ID NO: 3) was added at 100 ng/ml final concentration and incubated for 30 minutes. For cyno receptor-ligand binding assay 20 μl of biotinylated cyno IL-33 (residues 112-269 of SEQ ID NO: 4) was added at 200 ng/ml final concentration and incubated for 30 minutes. The plate was washed 3 times with 300 μl of wash buffer. 50 μl of 0.2 μg/ml Streptavidin-HRP (Jackson Immunoresearch) was added and incubated for 30 min. The plate was washed 3 times with 300 μl of wash buffer containing PBS+0.05% Tween. 50 μl of TMB substrate (EMD Biosciences) was added to each well. Reaction was stopped by the addition of 100 μl of 0.2N Sulfuric Acid. OD450 were measured using Envision plate reader (Perkin Elmer).

Row | Binder | RGA IC50 [1] | Kd [2] | koff [2] | kon [2] | Kd [3] | koff [3] | kon [3] | IC50 [4]
1 | B1 | 1.92 µg/mL | 0.041 nM | 0.000163 s⁻¹ | 3.97e+06 M⁻¹ s⁻¹ | 0.031 nM | 0.000202 s⁻¹ | 6.42e+06 M⁻¹ s⁻¹ | 0.47 µg/mL
2 | B2 | 2.52 µg/mL | 0.029 nM | 0.000483 s⁻¹ | 1.7e+07 M⁻¹ s⁻¹ | 0.014 nM | 0.00139 s⁻¹ | 1e+08 M⁻¹ s⁻¹ | 0.28 µg/mL
3 | B3 | 1.3 µg/mL | 0.025 nM | 0.000172 s⁻¹ | 6.91e+06 M⁻¹ s⁻¹ | 0.01 nM | 0.000369 s⁻¹ | 3.54e+07 M⁻¹ s⁻¹ | 0.29 µg/mL
4 | B4 | 1.86 µg/mL | 0.016 nM | 0.000158 s⁻¹ | 9.63e+06 M⁻¹ s⁻¹ | 0.003 nM | 0.000264 s⁻¹ | 7.89e+07 M⁻¹ s⁻¹ | 0.3 µg/mL
5 | B5 | 1.88 µg/mL | 0.037 nM | 0.000301 s⁻¹ | 8.22e+06 M⁻¹ s⁻¹ | 0.029 nM | 0.000345 s⁻¹ | 1.18e+07 M⁻¹ s⁻¹ | 0.25 µg/mL
6 | B6 | 3.16 µg/mL | 0.027 nM | 0.000201 s⁻¹ | 7.54e+06 M⁻¹ s⁻¹ | 0.022 nM | 0.00023 s⁻¹ | 1.07e+07 M⁻¹ s⁻¹ | 0.29 µg/mL
7 | B7 | 2.34 µg/mL | 0.097 nM | 0.000222 s⁻¹ | 2.29e+06 M⁻¹ s⁻¹ | 0.029 nM | 0.000598 s⁻¹ | 2.05e+07 M⁻¹ s⁻¹ | 0.23 µg/mL
8 | B8 | 0.97 µg/mL | 0.026 nM | 0.00017 s⁻¹ | 6.59e+06 M⁻¹ s⁻¹ | 0.009 nM | 0.000311 s⁻¹ | 3.39e+07 M⁻¹ s⁻¹ | 0.32 µg/mL
9 | B9 | 2.3 µg/mL | 0.048 nM | 0.000395 s⁻¹ | 8.33e+06 M⁻¹ s⁻¹ | 0.021 nM | 0.00207 s⁻¹ | 1e+08 M⁻¹ s⁻¹ | 0.36 µg/mL
10 | B10 | 2.79 µg/mL | 0.035 nM | 9.61e-05 s⁻¹ | 2.73e+06 M⁻¹ s⁻¹ | 0.022 nM | 0.00013 s⁻¹ | 6.04e+06 M⁻¹ s⁻¹ | 0.39 µg/mL
11 | B11 | 1.33 µg/mL | 0.023 nM | 0.000224 s⁻¹ | 9.89e+06 M⁻¹ s⁻¹ | 0.018 nM | 0.000265 s⁻¹ | 1.45e+07 M⁻¹ s⁻¹ | 0.42 µg/mL
12 | B12 | 0.87 µg/mL | 0.046 nM | 0.000756 s⁻¹ | 1.65e+07 M⁻¹ s⁻¹ | 0.03 nM | 0.00257 s⁻¹ | 8.71e+07 M⁻¹ s⁻¹ | 0.35 µg/mL
13 | B13 | 2.52 µg/mL | 0.033 nM | 0.000299 s⁻¹ | 9.16e+06 M⁻¹ s⁻¹ | 0.037 nM | 0.000264 s⁻¹ | 7.2e+06 M⁻¹ s⁻¹ | 0.28 µg/mL
14 | B14 | 0.49 µg/mL | 0.014 nM | 0.000108 s⁻¹ | 7.54e+06 M⁻¹ s⁻¹ | 0.008 nM | 0.000124 s⁻¹ | 1.64e+07 M⁻¹ s⁻¹ | 0.34 µg/mL
15 | B15 | 1.25 µg/mL | 0.015 nM | 0.000208 s⁻¹ | 1.37e+07 M⁻¹ s⁻¹ | 0.005 nM | 0.000519 s⁻¹ | 1e+08 M⁻¹ s⁻¹ | 0.28 µg/mL
16 | B16 | 1.1 µg/mL | 0.012 nM | 0.000341 s⁻¹ | 2.9e+07 M⁻¹ s⁻¹ | 0.007 nM | 0.00065 s⁻¹ | 1e+08 M⁻¹ s⁻¹ | 0.44 µg/mL
17 | B17 | 1.69 µg/mL | 0.017 nM | 0.000126 s⁻¹ | 7.27e+06 M⁻¹ s⁻¹ | 0.004 nM | 0.000138 s⁻¹ | 3.81e+07 M⁻¹ s⁻¹ | 0.49 µg/mL
